In the RNAGym collection of RNA variant scans (doi:10.7554/elife.80360) one finds self-cleavage data, which are given here for 167 variants.

First the molecules themselves.
B1: HDV Ribozyme (parent)
chain: GGCCGGCAUGGUCCCAGCCUCCUCGCUGGCGCCGGCUGGGCAACAUUCCGAGGGGACCGUCCCCUCGGUAAUGGCGAAUGGGACCCA

The data set covers variants of B1. In words: self-cleavage, relative activity (ratio to wild type); higher = more cleavage; co-transcriptional.
Turning to G67A G74U, the self-cleavage came to 0.534.
To G68C U79C belongs 0.302; to C66A G82A, 0.356; to G67C G73A, 0.327.
Take G67C G73C: the self-cleavage was determined as 0.212.
Regarding G67U G81C, the self-cleavage amounted to 0.305.
With U69G G76A, the self-cleavage was determined as 0.855.
As to C66U G73U, the self-cleavage is 0.284.
In the case of C66U G73A, the self-cleavage was 0.66.
To C66U G73C belongs 0.528.
To U69C A87U belongs 0.993; to U69C A87C, 1.18; to U69C U79G, 1.16.
On to U69C U79C, for which the self-cleavage was 0.404.
With U69G U72G, the self-cleavage worked out at 0.997.
In the case of U69G A87C, the self-cleavage is 0.822.
G67U G82U: the self-cleavage is 0.227.
To G68U A70C belongs 0.582; to G68U A70U, 0.849; to U69G G73C, 0.665.
Regarding U69G G73A, the self-cleavage came out at 0.746.
To G67U U72G belongs 0.389; to A70C, 0.894; to U69G G81C, 0.101.
Regarding U69G G81U, the self-cleavage amounted to 0.374.
G68U G74U: the self-cleavage amounted to 0.604.
Next, G68U C75G: 0.228; G68U C75U: 0.225.
Next, U69A A87G: 0.99; U69A A87C: 1.01.
To G67C C85G belongs 0.96; to G67C C85A, 0.7; to U69A G76U, 0.95.
On to U69A G76A, for which the self-cleavage was determined as 0.727.
Turning to U69A G76C, the self-cleavage came to 0.906.
Regarding G67C C84A, the self-cleavage was found to be 0.682.
Next, G68U A77U: 0.578; U69A U72G: 0.883.
To U69A U72C belongs 0.665; to U69A U72A, 0.609; to G68U C84G, 0.525.
Next, G67U A70G: 1.16; G67U A70U: 0.812.
With G68A U79C, the self-cleavage was determined as 0.233.
For the variant G67C A87C, the self-cleavage amounted to 0.84.
Consider U69A A83G, for which the self-cleavage turned out to be 0.712.
U69C C75G: the self-cleavage was 0.213.
For the variant U69C C75A, the self-cleavage was 0.0536.
To U69A C85A belongs 0.767; to U69A C85G, 1.16.
With U69A A71G, the self-cleavage is 0.731.
To G68C G73A belongs 0.193; to G68C G73U, 0.158; to G68C G73C, 0.0511.
Next, C66U A83U: 0.43.
U69G A71C: the self-cleavage is 0.575.
As for U69G A71U, the self-cleavage was found to be 0.974.
In the case of U69C G74U, the self-cleavage is 0.575.
Regarding U69C G74A, the self-cleavage turned out to be 0.554.
Regarding G67U U69C, the self-cleavage was 0.906.
For the variant G67U U69G, the self-cleavage was 1.03.
Next, G68U C85U: 0.972; G68C G82U: 0.352; G68C G82A: 0.237.
With G68C C84G, the self-cleavage came to 0.639.
Next, G68C C84A: 1.06.
Next, G67C A70C: 0.655.
In the case of G67C A70U, the self-cleavage came out at 0.851.
Next, C66U G68U: 0.935; C66U G68A: 0.92.
On to C66U G68C, for which the self-cleavage came to 0.753.
Next, U69C A78C: 0.322; G68A C84A: 0.817.
To G68U G80A belongs 0.171; to C66G G73A, 0.434.
C66G G73U: the self-cleavage is 0.389.
To U69C G73U belongs 0.489.
Turning to U69C G73C, the self-cleavage is 0.633.
For the variant C66G C85G, the self-cleavage was found to be 0.969.
With U69C G76A, the self-cleavage worked out at 1.07.
Take U69C G76C: the self-cleavage is 1.11.
On to U69C G76U, for which the self-cleavage was determined as 1.29.
As to G68A A87G, the self-cleavage amounted to 0.995.
For G68A A87U, the self-cleavage was 0.831.
To G68C A70C belongs 0.63; to G68C A70G, 0.639; to G68C G74C, 0.181.
Next, C66G A83C: 0.178; U69C U72G: 0.529.
Next, G68C G76U: 1.23; G68C G76C: 1.03; G68C A78U: 0.35.
On to C66G G74U, for which the self-cleavage amounted to 0.396.
To C66G G74A belongs 0.471; to U69C C86G, 1.05.
To U69C C86U belongs 0.727; to U69C C86A, 0.906.
Take C66A U79G: the self-cleavage came out at 0.804.
To G67U G73A belongs 0.451; to G67U G73U, 0.263.
In the case of G68A A78G, the self-cleavage was determined as 0.727.
With G67C G80U, the self-cleavage was determined as 0.223.
In the case of G67C G80C, the self-cleavage is 0.189.
As for G67C G80A, the self-cleavage was determined as 0.464.
U69G C85G: the self-cleavage is 1.01.
To U69G C85A belongs 1.18; to G67C A77U, 0.707; to G67A G81U, 0.101.
Turning to G67A G81C, the self-cleavage was 0.117.
To U69A G80U belongs 0.141.
For the variant U69A G80C, the self-cleavage amounted to 0.38.
In the case of U69G A83U, the self-cleavage is 0.465.
On to U69G A83C, for which the self-cleavage turned out to be 0.554.
Next, U69G A78U: 0.277; G68C G81C: 0.0594; U69C G82U: 0.554.
To U69C G82C belongs 0.361; to C66G G68A, 0.695; to C66A U72G, 0.332.
Next, C66A U72A: 0.608.
As to G68C G80U, the self-cleavage is 0.322.
Turning to G68C G80C, the self-cleavage turned out to be 0.208.
As to C66U A87U, the self-cleavage is 1.23.
To G67U A77U belongs 0.681.
Consider G67U A77G, for which the self-cleavage worked out at 0.489.
Regarding C66U A78U, the self-cleavage stood at 0.309.
To G67U C86G belongs 0.945.
To G67U C86U belongs 0.933; to G67C G81A, 0.369.
To G67C G81U belongs 0.157.
Turning to G67C G81C, the self-cleavage amounted to 0.286.
In the case of G68A G76A, the self-cleavage is 1.
With U69C C85A, the self-cleavage came to 1.14.
As for U69C C85G, the self-cleavage was determined as 0.988.
In the case of C66A G81C, the self-cleavage was 0.163.
To C66A G81A belongs 0.354; to G68C C86G, 1.07; to G68C C86A, 1.1.
Next, G68C C86U: 0.997; C66U U72G: 0.582; U69A G73C: 0.264.
To U69A G73U belongs 0.494.
Take G67C A71C: the self-cleavage turned out to be 0.657.
As to U69C A70G, the self-cleavage stood at 0.889.
As to C66G C75A, the self-cleavage is 0.166.
With C66G C75G, the self-cleavage was 0.383.
Next, G68U C86A: 0.956; G68U C86U: 1.05.
Regarding G68C A71U, the self-cleavage was found to be 0.68.
Next, U69A U79G: 0.831; U69A U79C: 0.499.
To G67C A83U belongs 0.469; to A70C A77C, 0.244.
Take A70C A77G: the self-cleavage was found to be 0.808.
To G67C G68C belongs 0.566; to G67C G68U, 0.847.
Turning to G67C G68A, the self-cleavage is 0.955.
Next, G67U A83U: 0.469.
To G67U A83C belongs 0.635; to C66U G81U, 0.382; to C66U G81A, 0.509.
With G68C A87C, the self-cleavage came out at 0.73.
Regarding G68C A87G, the self-cleavage amounted to 0.948.
Next, G68C U69A: 0.739.
Consider G68C U69G, for which the self-cleavage worked out at 1.21.
In the case of G68C U69C, the self-cleavage was determined as 0.697.
Consider G68U G73A, for which the self-cleavage turned out to be 0.481.
